In the test the target is Taxol-stabilized microtubules prepared from pure bovine tubulin (bovine) (UniProt Q6B856). The test can be described thus: co-sedimentation.

Results on one substance are retold here after PMC2192373.

“GST-DmINCENP (full-length Drosophila inner centromere protein fused to GST) (natural protein)” gave a percent of the added protein that cosediments of 64%.
